Bridges are numbered along the chain shown (N, C = ends). Where no end group is shown, it is not given here.
T1: spp24 (secreted phosphoprotein, 24 kD), the parental protein of BBP (Bos taurus (Bovine), UniProt Q27967 24-203)
T1 construct: also called the related protein
T1 sequence: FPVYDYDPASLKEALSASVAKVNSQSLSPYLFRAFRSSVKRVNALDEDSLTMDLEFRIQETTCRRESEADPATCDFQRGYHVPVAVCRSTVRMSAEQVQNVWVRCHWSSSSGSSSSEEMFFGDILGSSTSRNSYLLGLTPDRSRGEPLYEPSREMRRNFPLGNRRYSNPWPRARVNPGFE

T2: recombinant human osteogenic protein-1 (rhOP-1, rhBMP-7) (human, UniProt P18075 293-431)
T2 construct: Amine-coupled to a CM-5 sensor chip
T2 sequence (looked up): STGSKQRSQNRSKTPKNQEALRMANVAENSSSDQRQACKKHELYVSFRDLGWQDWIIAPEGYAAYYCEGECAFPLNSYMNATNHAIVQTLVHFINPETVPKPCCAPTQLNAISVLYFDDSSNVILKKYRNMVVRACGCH

B1: recombinant human bone morphogenetic protein-2 (rhBMP-2) (ligand, UniProt P12643 283-396, looked up)
chain: QAKHKQRKRLKSSCKRHPLYVDFSDVGWNDWIVAPPGYHAFYCHGECPFPLADHLNSTNHAIVQTLVNSVNSKIPKACCVPTELSAISMLYLDENEKVVLKNYQDMVVEGCGCR
notes: Amine-coupled to a CM-5 sensor chip
B2: BMP Binding Peptide (BBP), cyclized synthetic 19 amino acid peptide (peptide)
peptide: CRSTVRMSAEQVQNVWVRC
modifications: disulfide 1-19 (inferred)
notes: it is treated here as the same bovine cyclic peptide; also called cyclized BBP

Experiments:
[1] = target: T1, spp24 (secreted phosphoprotein, 24 kD), …; test: SPR (Biacore X), ligand amine-coupled to CM-5 chip, Langmuir analysis
Experimental: (§1) The supernatant was decanted and used for analyses. Protein concentrations were determined using UV spectroscopy at an absorbance of 280 nm. Extinction coefficients were calculated using ProtParam tool (www.expasy.ch/tools/protparam.html). Flow rates ranged from 5 to 50 μl/min, and injection volumes were 20 to 100 μl. To ensure uniformity, an effort was made to react sufficient ligand to the chip to give a baseline value of about 2500 RU (response units). The kinetic constants kₐ (on rate, association constant, “recognition”) and kd (off rate, dissociation constant, “stability”) as well as the equilibrium constant KD (equilibrium constant, “affinity”) were determined by a Langmuir analysis using BIAevaluation software (version 3.2) installed on the instrument by the manufacturer.

[2] = target: B1; test: cell-based or functional assay
[3] = target: B1; test: SPR (Biacore X), ligand amine-coupled to CM-5 chip, Langmuir analysis
Experimental: as §1

[4] = target: T2, recombinant human osteogenic protein-1 …; test: as above
Experimental: as §1

[5] = target: recombinant human transforming growth factor-beta (rhTGF-β) (human); test: as above
Experimental: as §1

[6] = target: B1; test: SPR (Biacore X), rhBMP-2 on CM-5 chip, peptide as analyte; rhBMP-2 affixed to the chip; cyclized BBP, not reduced

Sequence of recombinant human transforming growth factor-beta (rhTGF-β) (human) (P01137 279-390): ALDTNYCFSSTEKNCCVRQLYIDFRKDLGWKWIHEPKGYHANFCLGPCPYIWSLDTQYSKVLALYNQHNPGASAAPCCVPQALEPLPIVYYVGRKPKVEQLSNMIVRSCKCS

Row | Kd [1] [nM] | koff [1] [s⁻¹] | kon [1] [M⁻¹ s⁻¹] | retention of labeled rhBMP-2 in collagen sponge implants in rodent muscle pouches [2] [fold] | Kd [3] [nM] | Kd [4] [nM] | Kd [5] [nM] | Kd [6] [nM] | Binder
1 | 17.7 | 0.0055 | 311000 | – | – | – | – | – | B1
2 | – | – | – | ~2 | 53.3 | 1160 | 68 | ~30000 | B2
